Test in all cases: SEC
The target of assay [1] is Physcomitrella patens adenosine kinase 2 (PpADK2) (Physcomitrella patens).
Assay [2] addresses Zea mays adenosine kinase 1 (ZmADK1) (Zea mays).
Assay [3] has as its target Zea mays adenosine kinase 2 (ZmADK2) (Zea mays).
The target in assay [4] is Zea mays adenosine kinase 3 (ZmADK3) (Zea mays).

With “Physcomitrella patens adenosine kinase 2 (PpADK2) (enzyme)”, in assay [1], the stoichiometry N was determined as 2.
Regarding “Zea mays adenosine kinase 1 (ZmADK1) (enzyme)”, in assay [2], the stoichiometry N was 2.
For “Zea mays adenosine kinase 2 (ZmADK2) (enzyme)”, the stoichiometry N in assay [3] stood at 2.
The substance “Zea mays adenosine kinase 3 (ZmADK3) (enzyme)” registered a stoichiometry N in assay [4] of 2.

Values taken from doi:10.1101/2024.12.05.626941.
